# Measured values reported in US20250197467A1 (BRIGHT PEAK THERAPEUTICS, published 2025).
# Values joined by “and” are separate entries in the source; they are usually repeats but may differ in a detail not shown here. Equal values may be shown once.
# T1: IL-18 receptor (IL-18Rαβ) on cells (UniProt Q13478 19-541; O95256 20-599, limits assumed)
# T1 sequence (looked up) 1: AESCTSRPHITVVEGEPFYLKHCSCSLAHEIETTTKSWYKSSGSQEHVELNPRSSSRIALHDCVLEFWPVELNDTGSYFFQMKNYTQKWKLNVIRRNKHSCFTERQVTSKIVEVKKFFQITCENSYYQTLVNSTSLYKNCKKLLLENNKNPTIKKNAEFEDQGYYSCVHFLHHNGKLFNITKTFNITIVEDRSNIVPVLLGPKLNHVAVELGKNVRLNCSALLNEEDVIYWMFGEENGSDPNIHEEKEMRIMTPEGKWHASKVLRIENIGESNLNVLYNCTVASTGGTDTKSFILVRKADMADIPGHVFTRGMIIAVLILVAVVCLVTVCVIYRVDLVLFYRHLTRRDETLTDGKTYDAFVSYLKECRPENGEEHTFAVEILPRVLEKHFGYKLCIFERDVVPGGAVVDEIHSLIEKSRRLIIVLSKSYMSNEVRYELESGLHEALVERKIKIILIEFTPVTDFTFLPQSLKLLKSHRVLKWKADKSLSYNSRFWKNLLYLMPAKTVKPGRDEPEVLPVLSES
# T1 sequence (looked up) 2: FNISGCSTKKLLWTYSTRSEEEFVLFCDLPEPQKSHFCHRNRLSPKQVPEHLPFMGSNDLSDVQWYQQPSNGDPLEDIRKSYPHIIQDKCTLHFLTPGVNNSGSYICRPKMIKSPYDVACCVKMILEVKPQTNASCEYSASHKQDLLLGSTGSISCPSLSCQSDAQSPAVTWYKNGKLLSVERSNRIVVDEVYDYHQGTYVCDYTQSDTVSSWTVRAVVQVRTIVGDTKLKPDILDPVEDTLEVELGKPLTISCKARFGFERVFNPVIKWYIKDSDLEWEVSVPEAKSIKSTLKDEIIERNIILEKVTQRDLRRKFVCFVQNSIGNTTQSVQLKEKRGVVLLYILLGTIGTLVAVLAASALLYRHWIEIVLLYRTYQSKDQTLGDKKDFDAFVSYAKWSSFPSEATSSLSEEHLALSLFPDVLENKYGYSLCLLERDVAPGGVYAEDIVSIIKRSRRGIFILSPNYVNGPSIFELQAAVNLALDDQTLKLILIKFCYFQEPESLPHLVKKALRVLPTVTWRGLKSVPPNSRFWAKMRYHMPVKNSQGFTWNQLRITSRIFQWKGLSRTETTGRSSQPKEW
# What was measured:
# [1] = target: T1, IL-18 receptor (IL-18Rαβ) on cells; experiment: cell-based or functional assay
# [2] = target: T1, IL-18 receptor (IL-18Rαβ) on cells; experiment: cell-based or functional assay; remark: listed apart in the source
"EC50 (IFNγ stimulation, NK92) [1]",HEK-Blue IL-18R reporter EC50 [2],Binder
824 pM,272 pM,SEQ ID NO 34 (ligand) YFGKLKSKLSVIRNLNDQVLFIDQGNRPLFEDMTDSDCRDNAPRTIFIISMYADAQPRGMAVTISVKCEKISTLSCENKIISFKEMNPPDNIKDTKSDIIFFQRSVPGHDNKMQFESSSYEGYFLACEKERDLFKLILKKEDELGDRSIMFTVQNED
26.8 pM,1.77 pM,SEQ ID NO 50 (ligand) YFGKLKSKLSVIRNLNDQVLFIDQGNRPLFEDMTDSDCRDNAPRTIFIISMYADSQPRGMAVAISVKCEKISTLSCENKIISFKEMNPPDNIKDTKSDIIFFQRSVPGHDNKMQFESSSYEGYFLACEKERDLFKLILKKEDELGDRSIMFTVQNED
69 pM,–,SEQ ID NO 9 (ligand) YFGKLKSKLSVIRNLNDQVLFIDQGNRPLFEDMTDSDARDNAPRTIFIISMYADSQPRGMAVTISVKAEKISTLSCENKIISFKEMNPPDNIKDTKSCIIFFQRSVPGHDNKMQFESSSYEGYFLACEKERDLFKLILKKEDELGDRSIMFTVQNED
1370 pM,–,SEQ ID NO 6 (ligand) YFGKLKSKLSIIRNLNDQVLFIDQGNRPLFEDMTDSDARDNAPRTIFIISMYADSQPRGMAVAISVKAEKISTLSAENKIISFKEMNPPDNIKDTKSCIIFFQRSVPGHDNKMQFESSSYEGYFLAAEKERDLFKLILKKEDELGDRSIMFTVQNED
962 pM,9.12 pM,SEQ ID NO 54 (ligand) YFGKLKSKLSVIRNLNDQVLFIDQGNRPLFEDMTDSDSRDNAPRTIFIISMYADSQPRGMAVTISVKSECISTLSSENKIISFKEMNPPDNIKDTKSDIIFFQRSVPGHDNKMQFESSSYEGYFLASEKERDLFKLILKKEDELGDRSIMFTVQNED
45 pM,0.86 pM and 0.53 pM,SEQ ID NO 57 (ligand) YFGKLKSKLSVIRNLNDQVLFIDQGNRPLFEDMTDSDSRDNAPRTIFIISMYADSQPRGMAVTISVKCEKISTLSCENKIISFKEMNPPDNIKDTKSDIIFFQRSVPGHDNKMQFESSSYEGYFLACEKERDLFKLILKKEDELGDRSIMFTVQNED
15 pM,0.268 pM,SEQ ID NO 59 (ligand) YFGKLKSKLSVIRNLNDQVLFIDQGNRPLFEDMTDSDARDNAPRTIFIISMYADSQPRGMAVTISVKCEKISTLSCENKIISFKEMNPPDNIKDTKSDIIFFQRSVPGHDNKMQFESSSYEGYFLACEKERDLFKLILKKEDELGDRSIMFTVQNED
6 pM,0.203 pM,SEQ ID NO 60 (ligand) YFGKLKSKLSVIRNLNDQVLFIDQGNRPLFEDMTDSDQRDNAPRTIFIISMYADSQPRGMAVTISVKCEKISTLSCENKIISFKEMNPPDNIKDTKSDIIFFQRSVPGHDNKMQFESSSYEGYFLACEKERDLFKLILKKEDELGDRSIMFTVQNED
144 pM,0.79 pM,SEQ ID NO 42 (ligand) YFGKLKSKLSVIRNLNDQVLFIDQGNRPLFEDMTDSDCRDNAPRTIFIISMYADAQPRGMAVAISVKCEKISTLSCENKIISFKEMNPPDNIKDTKSDIIFFQRSVPGHDNKMQFESSSYEGYFLACEKERDLFKLILKKEDELGDRSIMFTVQNED
26 pM,0.17 pM,SEQ ID NO 62 (ligand) YFGKLKSKLSVIRNLNDQVLFIDQGNRPLFEDMTDSDARDNAPRTIFIISMYADSQPRGMAVTISVKCEKISTLSCENKIISFKEMNPPDNIKDTKSDIIFFQRSVPGHDNKMQFESSSYEGYFLAAEKERDLFKLILKKEDELGDRSIMFTVQNED

# Continued, binder first:
Binder,"EC50 (IFNγ stimulation, NK92) [1]",HEK-Blue IL-18R reporter EC50 [2]
C149 (ligand) YFGKLESKLSIIRNLNDQVLFIDQGNRPLFADMTDSDARDNAPRTIFIISMYADSQPRGMAVTISVKCEKISTLSAENKIISFKEMNPPDNIKDTKSDIIFFQRSVPGHDNKMQFESSSYEGYFLAAEKERDLFKLILKKEDELGDRSIMFTVQNED,187 pM,6.6 pM
C147 (ligand) YFGKLESKLSIIRNLNDQVLFIDQGNRPLFEDMTDSDARDNAPRTIFIISMYAASQPRGMAVTISVKCEKISTLSAENKIISFKEMNPPDNIKDTKSDIIFFQRSVPGHDNKMQFESSSYEGYFLAAEKERDLFKLILKKEDELGDRSIMFTVQNED,79 pM,1 pM
C143 (ligand) YFGKLESKLSIIRNLNDQVLFIDQGNRPLFEDMTDSDARDNAPRTIFIISMYADSQPRGMAVTISVKCEKISTLSAENKIISFKEMNPPDNIKDTKSDIIFFQRSVPGHDNKMQFESSSYEGYFLAAEKERDLFKLILKKEDELGDRSIMFTVQNED,138 pM,0.98 pM
C144 (ligand) YFGKLESKLSIIRNLNDQVLFIDQGNRPLFEDMTDSDARDNAPRTIFIISMYADSQPRGMAVAISVKCEKISTLSAENKIISFKEMNPPDNIKDTKSDIIFFQRSVPGHDNKMQFESSSYEGYFLAAEKERDLFKLILKKEDELGDRSIMFTVQNED,12 pM,0.17 pM
C146 (ligand) YFGKLESKLSIIRNLNDQVLFIDQGNRPLFEDMTDSDARDNAPRTIFIISGYADSQPRGMAVTISVKCEKISTLSAENKIISFKEMNPPDNIKDTKSDIIFFQRSVPGHDNKMQFESSSYEGYFLAAEKERDLFKLILKKEDELGDRSIMFTVQNED,37 pM,0.8 pM
SEQ ID NO 4 (ligand) YFGKLKSKLSVIRNLNDQVLFIDQGNRPLFEDMTDSDARDNAPRTIFIISMYADSQPRGMAVTISVKAEKISTLSCENKIISFKECNPPDNIKDTKSDIIFFQRSVPGHDNKMQFESSSYEGYFLACEKERDLFKLILKKEDELGDRSIMFTVQNED,22 pM,–
C145 (ligand) YFGKLESKLSIIRNLNDQVLFIDQGNRPLFEDMTDSDARDNAPRTIFIISMYADAQPRGMAVTISVKCEKISTLSAENKIISFKEMNPPDNIKDTKSDIIFFQRSVPGHDNKMQFESSSYEGYFLAAEKERDLFKLILKKEDELGDRSIMFTVQNED,87 pM,3.63 pM
SEQ ID NO 5 (ligand) YFGKLKSKLSIIRNLNDQVLFIDQGNRPLFEDMTDSDARDNAPRTIFIISMYADSQPRGMAVAISVKAEKISTLSAENKIISFKECNPPDNIKDTKSDIIFFQRSVPGHDNKMQFESSSYEGYFLAAEKERDLFKLILKKEDELGDRSIMFTVQNED,75 pM,–
C148 (ligand) YAGKLESKLSIIRNLNDQVLFIDQGNRPLFEDMTDSDARDNAPRTIFIISMYADSQPRGMAVTISVKCEKISTLSAENKIISFKEMNPPDNIKDTKSDIIFFQRSVPGHDNKMQFESSSYEGYFLAAEKERDLFKLILKKEDELGDRSIMFTVQNED,256 pM,7.28 pM
